The text below walks through data of PMC2239301.

This test addresses Smy2p fused to the LexA-DNA binding domain (S. cerevisiae). The experiment in a line: two-hybrid.

Chain of Smy2p fused to the LexA-DNA binding domain (S. cerevisiae) (P32909 whole entry, the tested form may be a part): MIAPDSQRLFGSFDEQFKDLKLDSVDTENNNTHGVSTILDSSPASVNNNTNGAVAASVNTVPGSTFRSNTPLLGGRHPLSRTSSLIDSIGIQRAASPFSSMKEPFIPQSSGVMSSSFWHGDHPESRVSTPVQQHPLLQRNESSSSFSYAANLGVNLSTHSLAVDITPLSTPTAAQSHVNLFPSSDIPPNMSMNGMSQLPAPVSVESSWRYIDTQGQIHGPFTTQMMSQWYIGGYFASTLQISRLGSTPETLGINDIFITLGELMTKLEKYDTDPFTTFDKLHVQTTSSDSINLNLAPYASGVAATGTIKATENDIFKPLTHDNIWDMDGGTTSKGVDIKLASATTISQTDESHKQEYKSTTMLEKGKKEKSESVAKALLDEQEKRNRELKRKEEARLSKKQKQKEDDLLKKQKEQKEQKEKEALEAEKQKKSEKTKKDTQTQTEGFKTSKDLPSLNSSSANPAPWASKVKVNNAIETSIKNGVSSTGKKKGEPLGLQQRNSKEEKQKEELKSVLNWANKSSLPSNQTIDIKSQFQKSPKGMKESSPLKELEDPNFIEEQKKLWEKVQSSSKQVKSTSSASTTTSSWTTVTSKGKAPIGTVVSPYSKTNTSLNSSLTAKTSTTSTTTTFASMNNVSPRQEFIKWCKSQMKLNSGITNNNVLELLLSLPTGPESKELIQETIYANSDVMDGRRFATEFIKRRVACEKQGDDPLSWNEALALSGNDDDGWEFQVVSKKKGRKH

B1: Sec23p connected to the B42 acidic activation domain (natural protein)
chain: MDFETNEDINGVRFTWNVFPSTRSDANSNVVPVGCLYTPLKEYDELNVAPYNPVVCSGPHCKSILNPYCVIDPRNSSWSCPICNSRNHLPPQYTNLSQENMPLELQSTTIEYITNKPVTVPPIFFFVVDLTSETENLDSLKESIITSLSLLPPNALIGLITYGNVVQLHDLSSETIDRCNVFRGDREYQLEALTEMLTGQKPTGPGGAASHLPNAMNKVTPFSLNRFFLPLEQVEFKLNQLLENLSPDQWSVPAGHRPLRATGSALNIASLLLQGCYKNIPARIILFASGPGTVAPGLIVNSELKDPLRSHHDIDSDHAQHYKKACKFYNQIAQRVAANGHTVDIFAGCYDQIGMSEMKQLTDSTGGVLLLTDAFSTAIFKQSYLRLFAKDEEGYLKMAFNGNMAVKTSKDLKVQGLIGHASAVKKTDANNISESEIGIGATSTWKMASLSPYHSYAIFFEIANTAANSNPMMSAPGSADRPHLAYTQFITTYQHSSGTNRIRVTTVANQLLPFGTPAIAASFDQEAAAVLMARIAVHKAETDDGADVIRWLDRTLIKLCQKYADYNKDDPQSFRLAPNFSLYPQFTYYLRRSQFLSVFNNSPDETAFYRHIFTREDTTNSLIMIQPTLTSFSMEDDPQPVLLDSISVKPNTILLLDTFFFILIYHGEQIAQWRKAGYQDDPQYADFKALLEEPKLEAAELLVDRFPLPRFIDTEAGGSQARFLLSKLNPSDNYQDMARGGSTIVLTDDVSLQNFMTHLQQVAVSGQA
On to B1, for which the β-galactosidase activity is 26 units.
